One assay concerns the target human C3b (human, UniProt P01024 23-667; P01024 749-1663, limits assumed). As to the kind of experiment: cell-based or functional assay.
For a further assay, the target named is T1, TSR5 peptide (human).
T1 construct: Synthetic peptide 'corresponding to TSR5'; also called TSR5 segment of properdin
T1 peptide: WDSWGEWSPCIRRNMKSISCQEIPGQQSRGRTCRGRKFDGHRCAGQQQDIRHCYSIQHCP
As to the kind of experiment: ELISA on plate-bound peptide. The procedure: (§1) Screening Assay: Microtiter plates were coated with peptide⁷¹⁻¹¹⁰. (2.0 μg/50 μl per well), TSR5 and TSR6 peptides in phosphate buffered saline (PBS) overnight at 4° C. After aspirating the peptide solutions, the wells were blocked with PBS containing 1% bovine serum albumin (BSA) for 2 hours at room temperature. Wells without peptide coating served as background controls. […] The plate was incubated at room temperature for 1-hour. The plate developed using standard ELISA methods described above.
For orientation: ELISA stands for enzyme-linked immunosorbent assay.

For the next assay, the target named is T2, TSR6 peptide (human).
T2 construct: Synthetic peptide 'corresponding to TSR6'; also called TSR6 segment of properdin
T2 peptide: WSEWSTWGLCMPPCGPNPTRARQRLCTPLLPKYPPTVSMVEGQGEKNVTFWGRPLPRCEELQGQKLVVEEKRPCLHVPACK
As to the kind of experiment: ELISA on plate-bound peptide. How it is done:
as §1

Regarding RYRRCVGWNG [Properdin peptide RYRRCVGWNG (99-108)], the “IC50 of inhibition of MAC (C5b-9) formation, LPS-coated wells, 10% normal human serum” value with human C3b was approximately 50 mg/L.

B1: MoAb^71-110 (antibody, V domains shown)
VH: QVLLQQSAPELARPGASVKMSCTASGYIFTNYPIHWVKQRPGQGLEWIGFIDPGGGYDEPDERFRDRATLTADKSSSTAYMQLSSLTSEDSAIYYCARRGGGYYLDYWGQDTTLTVSA
VL: SIVMTQTPKFLLVSAGDRITITCKASQSVNNDVAWYQQKPGQSPKLLIYYASNRYTGVPDRFTGSGYGTDFTFTITTVKAEDLAVYFCQQDYSSPLTFGAGTKLELK
notes: Mouse monoclonal antibody from a hybridoma; also called MoAbB^71-110; anti properdin antibody clone MoAb^71-110
For the molecule B1, the binding result with TSR5 peptide and with TSR6 peptide was “no binding” each time.
